# According to patent US20220118089A1 (UNIVERSITY OF CHICAGO, published 2022):
# T1: recombinant mouse FcRn (Acro Biosystems) (mouse, UniProt Q61559 22-297; P01887 21-119)
# T1 construct: also called neonatal Fc receptor; murine FcRn recombinant protein
# T1 sequence (looked up) 1: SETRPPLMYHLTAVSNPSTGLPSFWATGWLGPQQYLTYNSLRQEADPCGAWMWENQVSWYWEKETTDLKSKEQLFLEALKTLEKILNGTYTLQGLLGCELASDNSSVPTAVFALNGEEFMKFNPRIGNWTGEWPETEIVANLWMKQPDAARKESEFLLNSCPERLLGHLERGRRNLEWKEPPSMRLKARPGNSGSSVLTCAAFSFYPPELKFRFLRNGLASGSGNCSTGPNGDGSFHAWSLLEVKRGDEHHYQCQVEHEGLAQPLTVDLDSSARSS
# T1 sequence (looked up) 2: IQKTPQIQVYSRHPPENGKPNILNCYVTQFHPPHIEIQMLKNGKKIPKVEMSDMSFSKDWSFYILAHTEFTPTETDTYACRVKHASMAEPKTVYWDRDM
# T2: human type III collagen (Millipore Sigma) (human, UniProt P02461 154-1221)
# T2 construct: treated as one molecule; also called collagen type III; collagen III
# T2 sequence (looked up): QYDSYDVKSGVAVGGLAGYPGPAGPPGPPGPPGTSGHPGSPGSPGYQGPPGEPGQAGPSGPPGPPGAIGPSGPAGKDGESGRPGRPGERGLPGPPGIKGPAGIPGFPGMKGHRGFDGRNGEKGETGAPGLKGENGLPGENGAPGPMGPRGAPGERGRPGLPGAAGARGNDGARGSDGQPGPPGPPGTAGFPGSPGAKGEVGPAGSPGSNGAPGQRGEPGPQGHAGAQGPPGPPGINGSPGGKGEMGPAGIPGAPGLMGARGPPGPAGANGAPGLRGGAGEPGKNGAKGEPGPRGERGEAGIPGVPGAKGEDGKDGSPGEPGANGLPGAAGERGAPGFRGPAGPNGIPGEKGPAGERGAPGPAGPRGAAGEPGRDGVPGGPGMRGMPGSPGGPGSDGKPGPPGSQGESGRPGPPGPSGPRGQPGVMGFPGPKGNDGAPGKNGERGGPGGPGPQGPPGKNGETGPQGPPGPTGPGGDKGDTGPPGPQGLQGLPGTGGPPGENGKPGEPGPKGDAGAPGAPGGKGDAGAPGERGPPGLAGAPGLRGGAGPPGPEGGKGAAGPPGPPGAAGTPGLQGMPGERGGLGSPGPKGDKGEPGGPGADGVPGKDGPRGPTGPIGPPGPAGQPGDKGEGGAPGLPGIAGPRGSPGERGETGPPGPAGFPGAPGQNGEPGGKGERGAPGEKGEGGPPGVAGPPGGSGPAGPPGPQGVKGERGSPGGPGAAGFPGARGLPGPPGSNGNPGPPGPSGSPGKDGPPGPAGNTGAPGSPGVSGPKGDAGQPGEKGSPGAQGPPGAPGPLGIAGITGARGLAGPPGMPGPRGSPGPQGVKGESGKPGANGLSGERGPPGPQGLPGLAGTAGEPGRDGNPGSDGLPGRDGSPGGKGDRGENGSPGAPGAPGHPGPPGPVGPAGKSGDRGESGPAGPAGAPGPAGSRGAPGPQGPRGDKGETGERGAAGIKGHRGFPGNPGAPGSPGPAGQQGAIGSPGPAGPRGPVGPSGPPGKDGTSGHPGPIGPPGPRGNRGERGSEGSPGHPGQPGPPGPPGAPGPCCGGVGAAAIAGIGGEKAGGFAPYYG
# B1: Human VWF A3 domain (CBD), mouse serum albumin and mouse IL-10 fusion protein (other)
# chain: CSQPLDVVLLLDGSSSLPESSFDKMKSFAKAFISKANIGPHLTQVSVIQYGSINTIDVPWNVVQEKAHLQSLVDLMQQEGGPSQIGDALAFAVRYVTSQIHGARPGASKAVVIIIMDTSLDPVDTAADAARSNRVAVFPVGVGDRYDEAQLRILAGPGASSNVVKLQQVEDLSTMATLGNSFFHKLCSGFSGVGGGSGGGSEAHKSEIAHRYNDLGEQHFKGLVLIAFSQYLQKCSYDEHAKLVQEVTDFAKTCVADESAANCDKSLHTLFGDKLCAIPNLRENYGELADCCTKQEPERNECFLQHKDDNPSLPPFERPEAEAMCTSFKENPTTFMGHYLHEVARRHPYFYAPELLYYAEQYNEILTQCCAEADKESCLTPKLDGVKEKALVSSVRQRMKCSSMQKFGERAFKAWAVARLSQTFPNADFAEITKLATDLTKVNKECCHGDLLECADDRAELAKYMCENQATISSKLQTCCDKPLLKKAHCLSEVEHDTMPADLPAIAADFVEDQEVCKNYAEAKDVFLGTFLYEYSRRHPDYSVSLLLRLAKKYEATLEKCCAEANPPACYGTVLAEFQPLVEEPKNLVKTNCDLYEKLGEYGFQNAILVRYTQKAPQVSTPTLVEAARNLGRVGTKCCTLPEDQRLPCVEDYLSAILNRVCLLHEKTPVSEHVTKCCSGSLVERRPCFSALTVDETYVPKEFKAETFTFHSDICTLPEKEKQIKKQTALAELVKHKPKATAEQLKTVMDDFAQFLDTCCKAADKDTCFSTEGPNLVTRCKDALAGGGSGGGSSRGQYSREDNNCTHFPVGQSHMLLELRTAFSQVKTFFQTKDQLDNILLTDSLMQDFKGYLGCQALSEMIQFYLVEVMPQAEKHGPEIKEHLNSLGEKLKTLRMRLRRCHRFLPCENKSKAVEQVKSDFNKLQDQGVYKAMNEFDIFINCIEAYMMIKMKSHHHHHH
# notes: also called CBD-SA-IL-10; CBD-SA-fused IL-10
# Columns and labels:
# [1] = target: human type III collagen (Millipore Sigma) (human) (UniProt P02461); experiment: ELISA on plates coated with collagen III, 0-740 nM A3-IL4
# [2] = target: recombinant mouse IL-4Ra protein (R&D Systems) (mouse) (UniProt P16382); experiment: ELISA on plates coated with recombinant mouse IL-4Ra (10 µg/mL), 0-740 nM A3-IL4, detected with an antibody against mouse IL-4, A450; Kd from the fitted curve [B]
# Sequence of recombinant mouse IL-4Ra protein (R&D Systems) (mouse) (P16382 26-233 limits assumed): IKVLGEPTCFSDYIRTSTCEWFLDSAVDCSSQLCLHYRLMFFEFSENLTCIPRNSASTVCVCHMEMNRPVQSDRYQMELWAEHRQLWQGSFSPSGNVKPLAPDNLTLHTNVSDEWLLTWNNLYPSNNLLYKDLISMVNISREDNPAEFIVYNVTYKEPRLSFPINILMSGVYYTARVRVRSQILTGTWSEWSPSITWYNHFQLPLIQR
# [3] = target: T1, recombinant mouse FcRn (Acro Biosystems); experiment: SPR (Biacore X100), mouse FcRn immobilised on a C1 chip, CBD-SA-IL-10 flowed at pH 5.8, 1:1 Langmuir fit
# Procedure: (§1) SPR measurements were carried out with Biacore X100 instrument. In collagen binding experiments, recombinant human type I or type III collagen (Millipore Sigma) were immobilized on a CMS sensor chip by standard amine coupling method (˜1500 resonance units (RUs)) and blocked with ethanolamine. […] In FcRn binding experiments, recombinant mouse FcRn (Acro Biosystems) was immobilized via amine coupling on a C1 chip (GE Healthcare) for ˜200 RU according to the manufacturer's instructions. […] The sensor chip was regenerated with PBS, pH 7.4 for every cycle.
# [4] = target: T3, human type I collagen (Millipore Sigma) (human, UniProt P02452 162-1218; P08123 80-1119); experiment: SPR (Biacore X100), human type I collagen immobilised by amine coupling, CBD-SA-IL-10 flowed, 1:1 Langmuir fit
# T3 construct: treated as one molecule; also called collagen type I
# T3 sequence (P02452 162-1218, chain 1 of 2): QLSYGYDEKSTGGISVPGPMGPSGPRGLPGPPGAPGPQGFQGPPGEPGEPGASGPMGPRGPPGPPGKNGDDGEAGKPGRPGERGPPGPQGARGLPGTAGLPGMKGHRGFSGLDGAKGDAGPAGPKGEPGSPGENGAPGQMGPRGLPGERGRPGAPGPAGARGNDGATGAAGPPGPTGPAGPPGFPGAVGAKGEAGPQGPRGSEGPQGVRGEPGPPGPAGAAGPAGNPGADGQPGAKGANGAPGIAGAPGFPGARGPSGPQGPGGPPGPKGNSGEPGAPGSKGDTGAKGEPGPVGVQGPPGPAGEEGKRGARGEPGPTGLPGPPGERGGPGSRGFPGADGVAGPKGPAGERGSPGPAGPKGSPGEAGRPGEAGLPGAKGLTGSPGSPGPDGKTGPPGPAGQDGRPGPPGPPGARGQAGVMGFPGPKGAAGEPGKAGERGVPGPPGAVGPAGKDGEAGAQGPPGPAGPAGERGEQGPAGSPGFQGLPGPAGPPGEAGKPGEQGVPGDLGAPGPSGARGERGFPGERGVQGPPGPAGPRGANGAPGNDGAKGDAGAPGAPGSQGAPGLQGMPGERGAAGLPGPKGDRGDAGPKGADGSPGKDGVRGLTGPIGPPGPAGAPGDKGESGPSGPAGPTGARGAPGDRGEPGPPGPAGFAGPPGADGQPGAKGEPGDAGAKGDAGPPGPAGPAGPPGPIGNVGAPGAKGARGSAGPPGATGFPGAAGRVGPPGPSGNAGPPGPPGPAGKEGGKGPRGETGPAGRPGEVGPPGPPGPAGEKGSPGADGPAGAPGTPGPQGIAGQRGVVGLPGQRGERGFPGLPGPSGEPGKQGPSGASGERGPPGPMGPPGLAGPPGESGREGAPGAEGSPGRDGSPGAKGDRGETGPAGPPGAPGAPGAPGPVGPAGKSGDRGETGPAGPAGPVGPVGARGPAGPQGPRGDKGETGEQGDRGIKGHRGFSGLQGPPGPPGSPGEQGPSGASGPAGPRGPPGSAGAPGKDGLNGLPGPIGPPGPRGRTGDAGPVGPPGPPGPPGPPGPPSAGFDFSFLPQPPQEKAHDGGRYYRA
# T3 sequence (P08123 80-1119, chain 2 of 2): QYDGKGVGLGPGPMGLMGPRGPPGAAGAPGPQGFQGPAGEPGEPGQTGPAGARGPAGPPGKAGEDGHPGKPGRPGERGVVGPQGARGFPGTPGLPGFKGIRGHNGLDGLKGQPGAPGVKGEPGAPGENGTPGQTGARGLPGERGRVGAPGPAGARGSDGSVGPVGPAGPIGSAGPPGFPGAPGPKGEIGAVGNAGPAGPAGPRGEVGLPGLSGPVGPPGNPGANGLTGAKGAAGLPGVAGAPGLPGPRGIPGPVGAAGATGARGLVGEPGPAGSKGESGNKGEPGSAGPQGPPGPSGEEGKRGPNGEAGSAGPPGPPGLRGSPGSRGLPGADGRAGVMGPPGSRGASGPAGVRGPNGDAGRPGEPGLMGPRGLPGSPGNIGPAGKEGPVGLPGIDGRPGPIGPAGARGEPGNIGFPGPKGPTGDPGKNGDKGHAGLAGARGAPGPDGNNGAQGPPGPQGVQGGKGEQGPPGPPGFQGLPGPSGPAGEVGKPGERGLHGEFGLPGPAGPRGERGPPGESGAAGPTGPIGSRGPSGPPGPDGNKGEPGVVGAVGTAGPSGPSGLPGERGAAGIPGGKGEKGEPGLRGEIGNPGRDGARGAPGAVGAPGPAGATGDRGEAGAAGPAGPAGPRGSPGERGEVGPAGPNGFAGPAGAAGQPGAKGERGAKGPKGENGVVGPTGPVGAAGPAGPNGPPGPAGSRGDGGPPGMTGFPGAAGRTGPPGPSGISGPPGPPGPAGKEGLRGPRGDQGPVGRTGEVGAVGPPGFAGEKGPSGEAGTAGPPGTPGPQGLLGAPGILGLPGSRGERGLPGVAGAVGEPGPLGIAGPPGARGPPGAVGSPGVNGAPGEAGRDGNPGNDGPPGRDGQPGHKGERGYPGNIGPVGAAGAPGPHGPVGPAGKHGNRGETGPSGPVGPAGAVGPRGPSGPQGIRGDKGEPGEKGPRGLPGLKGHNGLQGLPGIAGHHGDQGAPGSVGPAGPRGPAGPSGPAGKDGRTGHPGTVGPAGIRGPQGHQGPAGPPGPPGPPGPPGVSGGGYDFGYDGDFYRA
# Procedure: as §1
# [5] = target: T2, human type III collagen (Millipore …); experiment: SPR (Biacore X100), human type III collagen immobilised by amine coupling, CBD-SA-IL-10 flowed, 1:1 Langmuir fit
# Procedure: as §1
Molecule,Kd [1] [nM],Kd [2] [nM],Kd [3] [nM],koff [3] [s⁻¹],kon [3] [M⁻¹ s⁻¹],Kd [4] [nM],koff [4] [s⁻¹],Kd [5] [nM],koff [5] [s⁻¹]
vWF A3 domain-fused IL-4 (human vWF A3 domain and mouse IL-4 fusion protein),28.6,100,–,–,–,–,–,–,–
B1,–,–,1600,0.0084,5210,12.4,0.0034,8,0.0026
